Columns and labels:
[1] = target: T1, the protein of the invention (ZAQ) (Homo sapiens, UniProt Q8TCW9); assay: activation of the protein of the invention and intracellular Ca ion concentration in cells expressing it; type: cell-based
T1 construct: expressed in transfected cells

[2] = test system: proximal colon; conditions: cited from earlier work
[3] = test system: ileum or distal colon; conditions: cited from earlier work

T1 sequence (Q8TCW9 whole entry): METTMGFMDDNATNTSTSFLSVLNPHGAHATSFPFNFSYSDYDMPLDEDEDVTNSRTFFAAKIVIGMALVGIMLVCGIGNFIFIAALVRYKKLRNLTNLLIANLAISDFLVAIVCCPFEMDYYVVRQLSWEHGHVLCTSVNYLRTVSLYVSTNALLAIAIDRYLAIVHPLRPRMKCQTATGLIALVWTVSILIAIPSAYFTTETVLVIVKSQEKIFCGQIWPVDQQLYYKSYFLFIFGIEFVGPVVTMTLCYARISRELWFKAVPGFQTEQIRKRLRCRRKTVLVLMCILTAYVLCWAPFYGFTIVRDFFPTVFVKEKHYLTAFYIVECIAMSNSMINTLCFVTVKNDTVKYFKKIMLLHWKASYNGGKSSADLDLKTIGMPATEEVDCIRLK

B1: MIT1 (protein, listed as Dendroaspip polylepis)
chain: AVITGACERDLQCGKGTCCAVSLWIKSVRVCTPVGTSGEDCHPASHKIPFSGQRMHHTCPCAPNLACVQTSPKKFKCLSK
- activation of the protein of the invention [1]: activated the protein of the invention
- intracellular Ca ion concentration ([1]; cells in which the protein of the invention was expressed): increased intracellular Ca ion concentration
- relaxation in the proximal colon [2]: relaxation in the proximal colon
- contraction in the ileum or distal colon [3]: induced contraction in the ileum or distal colon
- degree of contraction/relaxation compared with potassium chloride ([3]; ileum, distal colon (contraction) and proximal colon (relaxation), comparator 40 mM potassium chloride): as potent as comparable to 40 mM potassium chloride

— patent US20040072293A1, “Novel physiologically active peptide and use thereof” (priority 2001, published 2004)
